Data published in US6284456.

System: HIV-1 Tat Tat-1 delta1-47 (Human immunodeficiency virus 1 (HXB2))
Test: EMSA
Conditions: truncated Tat-1 (construct assumed delta1-47)

Q: How did the binding signal (fold higher affinity than for TAR-1) turn out when HIV-2 TAR-2 RNA wt (+1 to +123) was run?
A: Its binding signal (fold higher affinity than for TAR-1) is 4.
